Test results reported in patent US20160208226A1, “Transaminase Biocatalysts” (COMMONWEALTH SCIENTIFIC AND INDUSTRIAL RESEARCH ORGANISATION, priority 2013, published 2016).

Assays:
[1] = Solubility of the substrates in the alanine dehydrogenase-coupled kinetic assay; type: physicochemical; settings: assay buffer; kinetic parameters cannot be determined
Description: (§1) The alanine dehydrogenase-coupled assay has been used to determine some early kinetic parameters for p6 and p7. Reactions with C3 to C8 for p6 and C4 to CS have been fully characterised and show no clear trend in terms of reaction rate vs. carbon chain length. For C11 and C12, the solubility of the substrates is extremely low, and as such, kinetic parameters cannot be determined.
as §1, with “all the aforementioned enzymes.” for “p6 and p7.”, “C8 for p7” for “CS”

[2] = Coupled dehydrogenase assays for transaminase activity of the Pseudomonas sp. proteins and ancestral reconstructions; type: biochemical; settings: for activity of ancestral reconstruction proteins in the coupled assays: E. coli expressed, purified proteins; for pH optimum: UV absorbance at 340 nm, pH range 7.5-10; for pH optimum / activity with ω-amino acids including long chain C11 and C12: 28° C.; for activity with ω-amino acids including long chain C11 and C12: 340 nm, pH 7.5-10
Method: Activity for each protein was assessed using coupled dehydrogenase assays as described previously. A typical assay comprised:
Substrate (6.25 mM final concentration in potassium phosphate buffer)
Co-substrate (pyruvate (0.5 mM final concentration) or α-KG (0.25 mM final concentration)
NAD (1.25 mM final concentration)
Dehydrogenase (1 μL from ADH-≧35 units/mL stock solution or GDH≧35 units/mg protein stock)
Transaminase (final concentration dependent)
Potassium phosphate buffer (100 mM)
UV absorbance at 340 nm was recorded at 28° C. over a pH range of 7.5-10 with a range of substrates.
Proteins encoded by p7N6, p7N15, p7N16, p7N17, p7N43 and p7N48 were expressed using an E. coli recombinant expression platform and subsequently purified.
Each of the proteins were assayed for substrate specificity. Substrates identified by assaying for each of the proteins are summarized below.

With `NCCCCCCCCCCC(=O)O` [C11, 11-aminoundecanoic acid] the “solubility of the substrates” value [1] was “extremely low”.

For `NCCCCCCCCCCCC(=O)O` [C12, 12-aminododecanoic acid], the “solubility of the substrates” value [1] was “extremely low”.

B1: p7N15: de novo peptide sequence based on p7, produced by ancestral reconstruction; SEQ ID NO:8 (protein)
chain: MTDLDQLFEMDRAHFMHPSTHAHDHASGALPGRIITGGKGIRIQDHEGREYIDAFAGLYCVNIGYGRTEVADAIYEQAKELAYYHTYVGHSTEAIIELSSRIIRDWAPAGMKKVYYGMSGSDANETQIKLVWYYNNVLGRPQKKKIISRQRGYHGSGIMTGSLTGLPSFHQHFDLPIERIKHTVCPHWYKAPAGMSEAQFVRYCADELEKLILAEGPDTVAAFIGEPVMGTGGIIPPPQGYWEAIQAVLNKYDILLIADEVVCGFGRLGSKMGSQHYGMKPDLITVAKGLTSAYAPLSGVIVGEKVWDVIEKGSQEHGPMGHGWTYSGHPICAAAALANLDILERENLTGNAADVGAYLQQRLRETFGGHPLVGEVRGVGMLAALEFMADKDARTPFDPALKVGPKVSAACLEDGMIARAMPHGDILGFAPPLVITRAEVDEIVGIAKQAVDEVADEVL
modifications: Molecule produced by ancestral reconstruction
For B1, the “activity of ancestral reconstruction proteins in the coupled assays” value (shortened to “activity … in the coupled assays”) [2] was “activity in accordance with p7”.

B2: p7N43: de novo peptide sequence based on p7, produced by ancestral reconstruction; SEQ ID NO:11 (protein)
chain: MTSLEQLLEMDRAHFMHPSTHAYDHASGALPGRIITGGKGIRIEDHEGREYIDAFAGLYCVNIGYGREEVADAIYEQAKQLAYYHTYVGHSNDPVIELSSRIIEDWAPAGMKKVFYGMSGSDANETQIKLVWYYNNVLGRPNKKKIIARERSYHGSGIVTGSLTGLPSFHQHFDLPIDRVKHTVCPHWYNAPPGMSEAQFVAYCVEELEKLIAREGADTIAAFIAEPVMGTGGIVPPPQGYWEAIQAVLRKHDILLIADEVVCGFGRLGSKTGSEHYGIKPDLITVAKGLTSAYAPLSAVIVSEKVWDVIEKGSREHGVMGHGWTYSGHPVCAAAALANLDILERENLTGNAADVGAYLQQRLHEAFGAHPLVGEVRGVGMLAALEFMADKGARTPFDPALKVSQKVAAAALEDGLIVRALPHGDILGFAPPLVTTRAEVDEIVAIAKEAFDEVADAVL
modifications: Molecule produced by ancestral reconstruction
In the case of B2, the “activity … in the coupled assays” value [2] is reported as “activity in accordance with p7”.

B3: p7N48: de novo peptide sequence based on p7, produced by ancestral reconstruction; SEQ ID NO:12 (protein)
chain: MTDTDDLLEMDRAHFFHPSTHLRDHASGELPGRIITGGKGIRIQDSEGREYIDAFAGLYCVNVGYGRTEIADAIYEQAKELAYYHTYVGHSNEPIIELSERIIREWAPAGMSKVYYGMSGSDANETQIKLVWYYNNVLGRPQKKKIISRQRGYHGSGIMTGSLTGLPAFHNHFDLPLEPIRHTTCPHYYRAPAGMSEAEFSRHCADELEKMILAEGPDTVAAFIGEPVMGTGGIVPPPEGYWEAIQAVLNKYDILLIADEVVCGFGRTGSMFGSHHYGMKPDLITVAKGLTSAYAPLSGVIVGEKVWKVLEQGSDQYGPIGHGWTYSGHPICAAAALANLDIIERENLTGNAADTGAYFQQRMRETFGDHPLVGEVRGVGLMAALEFVADKDKRTRFDPSLKVGPRVSAACLEDGMIARAMPHGDILGFAPPLVITRAEVDEIVDIAKQAVDAVADELV
modifications: Molecule produced by ancestral reconstruction
For B3, the “activity … in the coupled assays” value [2] was “activity in accordance with p7”.

B4: p7: pyruvate: ω-amino acid transaminase from Pseudomonas sp., amino acid sequence SEQ ID NO:2 (protein, listed as Pseudomonas sp.)
chain: MGSSHHHHHHSSGLVPRGSHMTDYAKLFEQDRAHFMHPSTHAHDHASGALPGRIITGASGVRIRDHQGRELLDAFAGLYCVNIGYGRLEVADAIHEQAKQLAYYHTYVGHASEAIIELSARIIRDWAPAGMKKVYYGLSGSDANETQVKLVRYYNNVLGRPQKKKIISRQRGYHGSGIVTGSLTGLASFHQHFDLPVEGVKHTLCPHFYKAPAGMDEAAFVRHCAQELENLILAEGPDTVAAFIGEPVMGTGGIIVPPKGYWEAIQAVLAKYDVLLIADEVVCAFGRLGDKMGSQRHAMRPDLITTAKGLTSAYAPLSAVIVGEKVWDVIDSASTREGAMGHGWTYSGHPICAAAALANLDILERENITANAADVGGYLNQQLRQAFEGHPLVGEVRGDGMLAALEFMADREARTPFDAALKVGPKVSAACLERGMIARAMPHGDILGFAPPLVLSRAEADEVVGIAKAAVDAVAAEVL
For B4, the pH optimum [2] was about 10, the smallest substrate accepted ([2]; coupled dehydrogenase assay) was “C4 (γ-aminobutyrate; GABA)” and the “activity with ω-amino acids including long chain C11 and C12” value ([2]; coupled dehydrogenase assay) was “shown the desired activity with ω-amino acids, notably including long chain amino acids C11 and C12”.

B5: p7N16: de novo peptide sequence based on p7, produced by ancestral reconstruction; SEQ ID NO:9 (protein)
chain: MQSLDQLFEMDRAHFMHPSTHAHDHASGALPGRIITGGKGIRIEDHEGREYIDAFAGLYCVNIGYGRTEVADAIYEQAKQLAYYHTYVGHSTDAIIELSSRIIRDWAPAGMKKVYYGMSGSDANETQIKLVWYYNNVLGRPNKKKIISRERGYHGSGIVTGSLTGLPSFHQHFDLPIDRVKHTVCPHWYRAPAGMSEAQFVAYCVEELEKLIAREGADTIAAFIAEPVMGTGGIIPPPQGYWEAIQAVLRKHDILLIADEVVCGFGRLGSKMGSQHYGIKPDLITVAKGLTSAYAPLSGVIVGEKVWDVIEKGSQEHGPMGHGWTYSGHPICAAAALANLDILERENLTGNAADVGAYLQQRLHEAFGAHPLVGEVRGVGMLAALEFMADKDARTPFDPALKVGPKVSAAALEDGMIARAMPHGDILGFAPPLVTTRAEVDEIVGIAKQAVDEVADEVL
modifications: Molecule produced by ancestral reconstruction
With B5 the “activity … in the coupled assays” value [2] was “activity in accordance with p7”.

B6: p4: pyruvate: ω-amino acid transaminase from Pseudomonas sp., amino acid sequence SEQ ID NO:6 (protein, listed as Pseudomonas sp.)
chain: MTKQTSAQTQHWQALSREHHLAPFTDYKQLNEKGARIITKAEGVYLWDSEGNKILDGMAGLWCMNVGYGRKELAEVAYKQMLELPYYNLFFQTAHPPALELAKAIADIAPEGMNHVFFTGSGSESNDTVLRMVRHYWSIKGKPQKKVVIGRWNGYHGSTVAGVSLGGMKALHSQGDLPIPGIVHIAQPYWYGEGGDMSAEEFGVWAAEQLEKKILEVGEENVAAFIAEPIQGAGGVIVPPDTYWPKIREILAKYEILFIADEVICGFGRTGEWFGSQYYGNAPDLMPIAKGLTSGYIPMGGVIVRDEIVDTLNEGGEFYHGFTYSGHPVAAAVALENIRILREEKIVETVKAETAPYLQKRWQELADHPLVGEARGVGMVGALELVKNKKTRERFENGVGMLCREHCFRNGLIMRAVGDTMIISPPLVITKPEIDELITLARKCLDQTAAVALS
For B6, the pH optimum [2] was about 10 and the “activity with ω-amino acids including long chain C11 and C12” value ([2]; coupled dehydrogenase assay) was “shown the desired activity with ω-amino acids, notably including long chain amino acids C11 and C12”.

B7: p7N17: de novo peptide sequence based on p7, produced by ancestral reconstruction; SEQ ID NO:10 (protein)
chain: MTSLDQLFEEDRAHFMHPSTHAHDHASGALPGKIVTGGKGIRIEDHQGREYIDAFAGLYCVNIGYGRTEVADAIYEQAKQLAYYHTYVGHSTDAIIELSSRIIRDWAPAGMKKVYYGMSGSDANETQIKIVWYYNNVLGRPNKKKIISRERGYHGSGIVTGSLTGLPSFHQHFDLPIDRVKHTVCPHWYKAPAGMSEAQFVAYCVEELEKLIAREGADTIAAFIAEPVMGTGGIIAPPQGYWEAIQAVLRKHDILLISDEVVCGFGRLGSKMGAQHYGIKPDLITVAKGLTSAYAPLSGVIVGEKVWDVIEKGSQEHGPMGHGWTYSGHPICAAAALANLDILERENLTGNAADVGAYLQQRLHEAFGAHPLVGEVRGVGMLAALEFMADKDARTPFDPALKVGPKVSAAALEDGVIARAMPHGDILGFAPPLVTTRAEVDEIVGIVKQAVDEVADEVL
modifications: Molecule produced by ancestral reconstruction
With B7 the “activity … in the coupled assays” value [2] was “activity in accordance with p7”.

B8: p7N6: de novo peptide sequence based on p7, produced by ancestral reconstruction; SEQ ID NO:7 (protein)
chain: MTDFDQLFEQDRAHFMHPSTHAHDHASGALPGRIITGASGIRIRDHEGRELIDAFAGLYCVNIGYGRTEVADAIYKQAKELAYYHTYVGHSTEAIIELSSRIIRDWAPAGMKKVYYGLSGSDANETQIKLVRYYNNVLGRPQKKKIISRQRGYHGSGIMTGSLTGLPSFHQHFDLPVEGIKHTVCPHWYKAPAGMDEAAFVRYCADELEKLILAEGPDTVAAFIGEPVMGTGGIIVPPKGYWEAIQAVLNKYDVLLIADEVVCAFGRLGSKMGSQRYGMRPDLITTAKGLTSAYAPLSAVIVGEKVWDVIEKASQKEGAMGHGWTYSGHPICAAAALANLDILERENLTANAADVGAYLNQRLRETFEGHPLVGEVRGDGMLAALEFMADREARTPFDPALKVGPKVSAACLEDGMIARAMPHGDILGFAPPLVLTRAEADEIVGIAKAAVDEVAGEVL
modifications: Molecule produced by ancestral reconstruction
In the case of B8, the “activity … in the coupled assays” value [2] is reported as “activity in accordance with p7”.
